Measurements taken from publication PMC10036635, “FTD-tau S320F mutation stabilizes local structure and allosterically promotes amyloid motif-dependent aggregation” (Nature Communications, 2023).
Changes are numbered by the printed parent chain. Names may count otherwise.

B1: P301S_(295-330) tau peptide (peptide, UniProt P10636-8 295-330, looked up)
peptide: Ac-DNIKHVSGGGSVQIVYKPVDLSKVTSKCGSLGNIHH-NH2
notes: numbers count on: 2N4R tau (P10636-8); source: synthetic peptide (Genscript, > 95% purity)
B2: S320F_(295-324) tau peptide (peptide, UniProt P10636-8 295-324, looked up)
peptide: DNIKHVPGGGSVQIVYKPVDLSKVTFKCGS
notes: numbers count on: 2N4R tau (P10636-8); probably synthesised, acetylated and amidated like the others
B3: S320F_(306-324) tau peptide (peptide, UniProt P10636-8 306-324, looked up)
peptide: Ac-VQIVYKPVDLSKVTFKCGS-NH2
notes: as for B1
B4: S320F_(295-330) tau peptide (peptide, UniProt P10636-8 295-330, looked up)
peptide: Ac-DNIKHVPGGGSVQIVYKPVDLSKVTFKCGSLGNIHH-NH2
notes: as for B1
B5: S320I tau peptide (295-330) (peptide, UniProt P10636-8 295-330, looked up)
peptide: Ac-DNIKHVPGGGSVQIVYKPVDLSKVTIKCGSLGNIHH-NH2
notes: as for B1
B6: S320I_I328V tau peptide (295-330) (peptide, UniProt P10636-8 295-330, looked up)
peptide: Ac-DNIKHVPGGGSVQIVYKPVDLSKVTIKCGSLGNVHH-NH2
notes: as for B1
B7: S320F_(306-330) tau peptide (peptide, UniProt P10636-8 306-330, looked up)
peptide: Ac-VQIVYKPVDLSKVTFKCGSLGNIHH-NH2
notes: as for B1
B8: S324F_(295-330) tau peptide (peptide, UniProt P10636-8 295-330, looked up)
peptide: Ac-DNIKHVPGGGSVQIVYKPVDLSKVTSKCGFLGNIHH-NH2
notes: as for B1
B9: WT_(295-330) tau peptide (peptide, UniProt P10636-8 295-330, looked up)
peptide: Ac-DNIKHVPGGGSVQIVYKPVDLSKVTSKCGSLGNIHH-NH2
notes: as for B1
B10: WT_(295-324) tau peptide (peptide, UniProt P10636-8 295-324, looked up)
peptide: B2 peptide with F26S
notes: as for B2
B11: P301S_I328S_(295-330) tau peptide (peptide, UniProt P10636-8 295-330, looked up)
peptide: Ac-DNIKHVSGGGSVQIVYKPVDLSKVTSKCGSLGNSHH-NH2
notes: as for B1
B12: S320V tau peptide (295-330) (peptide, UniProt P10636-8 295-330, looked up)
peptide: Ac-DNIKHVPGGGSVQIVYKPVDLSKVTVKCGSLGNIHH-NH2
notes: as for B1
B13: S320F_I328S_(295-330) tau peptide (peptide, UniProt P10636-8 295-330, looked up)
peptide: Ac-DNIKHVPGGGSVQIVYKPVDLSKVTFKCGSLGNSHH-NH2
notes: as for B1
B14: L315S_S320F_(295-330) tau peptide (peptide, UniProt P10636-8 295-330, looked up)
peptide: Ac-DNIKHVPGGGSVQIVYKPVDSSKVTFKCGSLGNIHH-NH2
notes: as for B1
B15: S320F_L325S_(295-330) tau peptide (peptide, UniProt P10636-8 295-330, looked up)
peptide: Ac-DNIKHVPGGGSVQIVYKPVDLSKVTFKCGSSGNIHH-NH2
notes: as for B1
B16: WT_(306-330) tau peptide (peptide, UniProt P10636-8 306-330, looked up)
peptide: Ac-VQIVYKPVDLSKVTSKCGSLGNIHH-NH2
notes: as for B1
B17: WT_(306-324) tau peptide (peptide, UniProt P10636-8 306-324, looked up)
peptide: Ac-VQIVYKPVDLSKVTSKCGS-NH2
notes: as for B1

Target: the molecule itself
Experiment: ThT fluorescence aggregation assay + negative-stain TEM; self-assembly of tau peptides at 200 µM; 1x PBS, 2 mM TCEP, pH 7, 25 µM ThT, 72 h; TEM of the endpoint

Question: Does B1 bind?
Answer: Result: binds

Question: Does B2 bind?
Answer: Result: binds

Question: Does B3 bind?
Answer: Result: binds

Question: Does B4 bind?
Answer: Result: binds

Question: Does B5 bind?
Answer: Result: binds

Question: Does B6 bind?
Answer: Result: binds

Question: Does B7 bind?
Answer: Result: binds

Question: Does B8 bind?
Answer: Result: binds

Question: Does B9 bind?
Answer: Result: binds

Question: Does B10 bind?
Answer: Result: binds

Question: Does B11 bind?
Answer: Result: binds

Question: Does B12 bind?
Answer: Result: binds

Question: Does B13 bind?
Answer: Result: binds

Question: Does B14 bind?
Answer: Result: binds

Question: Does B15 bind?
Answer: Result: binds

Question: Does B16 bind?
Answer: Result: binds

Question: Does B17 bind?
Answer: Result: binds
